Test results from the supplement of paper PMC10201428.
± gives the standard deviation of the averaged measurements.

How the values were obtained:
[1] = system: VchCAST RNA-guided transposition machinery (E. coli BL21(DE3) host, lacZ target); test: relative integration efficiency (T-LR orientation) vs wild-type transposon end (log2 (normalized fold change)); transposon end mutated: right end (5 bp flank + 75 bp right end); higher = more efficient transposition
Outline: (§1)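 A T7-driven effector plasmid encoding a CRISPR array, tniQ-cas8-cas7-cas6 and tnsA-tnsB-tnsC was co-transformed into E. coli BL21(DE3) together with a pUC57 mini-transposon donor holding barcoded pools of 1549 left-end or 1849 right-end variants. Transformants were plated with 0.1 mM IPTG at 37°C for 18 h. Illumina sequencing of PCR-amplified input plasmids and genomic integration junctions gave barcode abundances, and relative integration efficiency is their output/input fold change, normalised to reference barcodes and log-transformed.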

[2] = system: VchCAST RNA-guided transposition machinery (E. coli BL21(DE3) host, lacZ target); test: relative integration efficiency (T-RL orientation) vs wild-type transposon end (log2 (normalized fold change)); transposon end mutated: right end (5 bp flank + 75 bp right end); higher = more efficient transposition
Outline: as §1

Sequence	relative integration efficiency (log2) [1]	relative integration efficiency (log2) [2]
ACATTTGTCGATACAACCATAAAATGATAATTACACCCATAAATTCATCATTATCACCCCCAATTTAACTATAACGCTCTGATCATAGTCAGACCAACATTGCTACGACCCGTATTCGCACCGACAC	1.54 ± 0.23	-1.99 ± 0.23
ACATTTGTCGATACAACCATAAAATGATAATTACACCCATAAATTGATAATTATCACCCCCAATTTAACTATAACGCTCTGATCATAGTCAGACCAACATTGCTACGACCCGTATTCGCACCGACAC	2.59 ± 0.2	-0.936 ± 0.32
ACATTTGTCGATACAACCATAAAATGATAATTACACCCATAAATTGATCATTATCACACCCAATTTAACTATAACGCTCTGATCATAGTCAGACCAACATTGCTACGACCCGTATTCGCACCGACAC	2.328 ± 0.013	-1.31 ± 0.23
ACATTTGTCGATACAACCATAAAATGATAATTACACCCATAAATTGATCATTATCACCCCCAATTTAACTATAACGCTCTGATCATAGTCAGACCAACATTGCTACGACCCGTATTCGCACCGACAC	2.13 ± 0.24	-1.31 ± 0.19
ACATTTGTCGATACAACCATAAAATGATAATTACCACCCATAAATTGATAATTATCACACCCATTTAACTATAACGCTCTGATCATAGTCAGACCAACATTGCTACGACCCGTATTCGCACCGACAC	1.62 ± 0.092	-1.12 ± 0.076
ACATTTGTCGATACAACCATAAAATGATAATTACCACCCATACATTGATAATTATCACACCCATTTAACTATAACGCTCTGATCATAGTCAGACCAACATTGCTACGACCCGTATTCGCACCGACAC	0.0639 ± 0.32	-2.37 ± 0.32
ACATTTGTCGATACAACCATAAAATGATAATTACCACCCCTAAATTGATAATTATCACACCCATTTAACTATAACGCTCTGATCATAGTCAGACCAACATTGCTACGACCCGTATTCGCACCGACAC	-0.156 ± 0.26	-3.12 ± 0.048
ACATTTGTCGATACAACCATAAAATGATAATTACCACCCCTACATTGATAATTATCACACCCATTTAACTATAACGCTCTGATCATAGTCAGACCAACATTGCTACGACCCGTATTCGCACCGACAC	-0.393 ± 0.058	-3.06 ± 0.23
ACATTTGTCGATACAACCATAAAATGATAATTCACCCATAAATTGATAATTATCACACCCCAATTTAACTATAACGCTCTGATCATAGTCAGACCAACATTGCTACGACCCGTATTCGCACCGACAC	1.05 ± 0.034	-2.26 ± 0.28
ACATTTGTCGATACAACCATAAAATGATAATTCACCCATCAATTGATAATTATCACACCCCAATTTAACTATAACGCTCTGATCATAGTCAGACCAACATTGCTACGACCCGTATTCGCACCGACAC	0.029 ± 0.092	-3.3 ± 0.52
ACATTTGTCGATACAACCCTAAAATGATAATTACACCCATAAATGGATAATTATCACACCCAATTTAACTATAACGCTCTGATCATAGTCAGACCAACATTGCTACGACCCGTATTCGCACCGACAC	-0.544 ± 0.14	-3.17 ± 0.19
ACATTTGTCGATACAACCCTAAAATGATAATTACACCCATAAATGGATAATTATCACCCCCAATTTAACTATAACGCTCTGATCATAGTCAGACCAACATTGCTACGACCCGTATTCGCACCGACAC	-1.16 ± 0.21	-3.44 ± 0.12
ACATTTGTCGATACAACCCTAAAATGATAATTACACCCATAAATGGATCATTATCACACCCAATTTAACTATAACGCTCTGATCATAGTCAGACCAACATTGCTACGACCCGTATTCGCACCGACAC	-1.24 ± 0.25	-4.03 ± 0.13
ACATTTGTCGATACAACCCTAAAATGATAATTACACCCATAAATGGATCATTATCACCCCCAATTTAACTATAACGCTCTGATCATAGTCAGACCAACATTGCTACGACCCGTATTCGCACCGACAC	-1.4 ± 0.051	-4.03 ± 0.42
ACATTTGTCGATACAACCCTAAAATGATAATTACACCCATAAATTCATAATTATCACACCCAATTTAACTATAACGCTCTGATCATAGTCAGACCAACATTGCTACGACCCGTATTCGCACCGACAC	-2.19 ± 0.3	-4.55 ± 0.13
ACATTTGTCGATACAACCCTAAAATGATAATTACACCCATAAATTCATAATTATCACCCCCAATTTAACTATAACGCTCTGATCATAGTCAGACCAACATTGCTACGACCCGTATTCGCACCGACAC	-1.84 ± 0.085	-4.67 ± 0.055
ACATTTGTCGATACAACCCTAAAATGATAATTACACCCATAAATTCATCATTATCACACCCAATTTAACTATAACGCTCTGATCATAGTCAGACCAACATTGCTACGACCCGTATTCGCACCGACAC	-1.06 ± 0.37	-4.888 ± 0.035
ACATTTGTCGATACAACCCTAAAATGATAATTACACCCATAAATTCATCATTATCACCCCCAATTTAACTATAACGCTCTGATCATAGTCAGACCAACATTGCTACGACCCGTATTCGCACCGACAC	-1.16 ± 0.18	-4.56 ± 0.18
